According to US20200199554A1 (KATHOLIEKE UNIVERSITEIT LEUVEN, published 2020):

Target: the molecule itself
Test: zymogram (SDS-PAGE gel with embedded fish sperm DNA, renatured); self-association, dimer band
Experimental: In addition, the nuclease activity was confirmed by zymography. […] Then, the gel was washed three times for 5 min in mQ and incubated for 48 h in zymogram renaturation buffer (150 mM NaH₂PO₄ pH 7, 10 mM MgCl₂ and 0.1% Triton X-100), which allowed the proteins to refold to their native state. Finally, the gel was stained for 20 min in 0.5 μg/ml ethidium bromide and destained for 20 min in the zymogram renaturation buffer. After staining with ethidium bromide, the enzymes with nuclease activity were visible as non-fluorescent bands using an UV transilluminator. The impact of boiling on the renaturing capacity of Gp5 was tested by loading both preboiled (10 min, 95° C.) and non-preboiled samples. Clear bands were observed around 8-9 kDa, indicating the nuclease activity of Gp5 (MW=8.5 KDa) (for details see FIG. 4). […] Despite the small fraction of Gp5 that is present as a dimer on the zymogram, this dimer:monomer ratio is not necessarily present in vivo. After all, SDS is an anionic surfactant, negatively charging proteins to allow a separation based on the molecular weight in SDS-PAGE. This step generally involves also the disintegration of dimers into monomers. The removal of SDS in the renaturation step, might allow Gp5 to reassociate into dimers.
Clear bands were observed around 8-9 kDa in all samples, indicating the presence of Gp5. […] The protein concentrations are shown on the top.

B1: LUZ19_Gp5 (untagged, purified) (enzyme)
chain: MSSRDPYRIGHRVGLVNYSDRYLGADAAGTKGTIEAITRPSRCMTIYHVRCERTLRLIEAEARNVRFIRQRAER
notes: A few linker residues may remain at the N-terminus; also called Phage LUZ19 gp5; miniDNase
B1: binds.
